What all share (test): BLI
Background: BLI is a label-free optical method that tracks binding on a fibre tip over time.

For assay [1], the target named is triazole-linked ^triazole42Ub^ADPr (4), biotinylated (UniProt P0CG48).
Assay [2] addresses triazole-linked ^triazole42Ub^me-ADPr (5), biotinylated (UniProt P0CG48).
Assay [3] has as its target triazole-linked ^triazole72Ub^ADPr, biotinylated (UniProt P0CG48).
The target in assay [4] is triazole-linked ^triazole42Ub^Pr (6), biotinylated (UniProt P0CG48).
The target of assay [5] is unmodified ubiquitin, biotinylated (biotin-Ub) (UniProt P0CG48).
For assay [6], the target named is natively linked ^Arg42Ub^ADPr, biotinylated (UniProt P0CG48).

For orientation: Kd means the concentration at which binding is half-saturated. Low values mean tighter binding, high ones weaker binding. With “DupA-H67A lacking the GST tag (from UniProt Q5ZTK7 1-301) (enzyme)”, the Kd in assay [1] was 2.2 µM; in assay [2], 1.2 µM; in assay [3], 9.3 µM. In addition, the fold reduction of affinity against 4 and 5 in assay [4] and in assay [5] was > 15 fold each time.
Regarding “glutathione S-transferase (GST)-tagged DupA-H67A (from UniProt Q5ZTK7 1-301) (enzyme)”, the Kd in assay [1] was 0.0112 µM; in assay [2], 0.0106 µM; in assay [6] it was 0.0057 µM; in assay [5] it was 0.0545 µM.
